Columns and labels:
Type in all cases: biochemical, Quillaja saponaria
[1] = Experiment 5-3: screening of additional glucosidases for deglycosylation with QS-18 in treated bark extract (80%) at pH 6 and 35 deg C; details: TBE 80% (QS-21 approx. 4 g/L), pH 6, 35 deg C; UV HPLC
Description: Experiment 5-1 was repeated, replacing CBE with Treated Bark Extract (TBE) at pH 6. TBE was prepared from CBE by PVPP treatment and concentration, to provide TBE with a QS-21 concentration of approximately 4 g/L. TBE was adjusted to pH 6 by dropwise addition of 2M NaOH with stirring.

[2] = Experiment 5-2: screening of additional glucosidases for deglycosylation with QS-18 in crude bark extract (80%) at pH 6 and 35 deg C; details: CBE 80%, pH 6, 35 deg C, 18 hours; UV HPLC
Procedure, shortened: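 Deglycosylation of QS-18 was monitored by UV HPLC after MeCN/AcOH quench with hexanophenone. The reaction ran 18 hours at 35 deg C, shaking, combining clarified pH 6 lysate with crude bark extract neutralised to pH 6 by NaOH.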

[3] = Experiment 5-1: screening of additional glucosidases for deglycosylation with purified QS-18 (0.04 mg/ml) at pH 7.5 and 30 deg C; details: pH 7.5, 30 degrees C, 18 hours, LCMS/MS
Description: The 94 additional genes, together with positive control (DNA encoding SEQ ID No. 262) and negative control, were transformed, expressed, lysed and reacted in the same manner as described above for Experiment 4-1, except the reaction was incubated at 30 degrees C. for 18 hours.
Samples were analysed by LCMS/MS according to the procedure in Experiment 4-1.

Molecule	Experiment 5-3 % conv [1]	Experiment 5-2 % conv [2]	Experiment 5-1 % conv [3]
803 (protein, listed as Penicillium italicum) MVQEKDISTADAVLASLTLEEKVSLLAGGSFWSTAAIPGKSIPSVKFSDGPNGARGSEMKGGPTSACFPCAVSLAATWNLDAIKEVGKALAEETKTKGANLLLGPTVCPHRHPLGGRNFESFSEDPFLSGMMASEYIVGLQGQGIGAAIKHFAANEQETFRNILDVTVSMRALREIYLKPFEIAIKQAKPWALMTAYNSVNGSHADCNSTLLQQILREEWKWDGLVLSDWGGTNSLVESLTAGLDLEMPGPPTVRKSELIMQALESNAIPESIINDRARAVLRFVATTTGFGPQKECKEYADDRPSHRELIRQVGREGIVLLKNEDDILPLKHTASAGSLTKIALLGFADEALIHGGGSAAVNAHHRITLAEGLRDAFKDRGLEIECAKGAHTLRKLPLMVDHVKNDEGKPGWSMQFLHPKDPAGVWRHIGEPSYTPTAPGNEGMTVRATTQFCVPASGRHYLSLSGLGPSSLKINGDEVYRQDGNCPDLMAFILTSYADIPVQYDFVAGQTYHIEVLSNPLEAYNGPSFMNGRAGFSVGFMLEAERDADLLAEAVTLASRSDIAIILTGNTAEWEAEGQDQVGFHLPRDGSQDRLVSAVAAANKSTIVVNCTGGPIAMPWIHEVKALLQAWFPGQEAGHSIADILVGDRFPSGRLPVTFPRAIEDTPAYRNFPGGFEEDGRARVRYEEGVFVGYRFYDHTPEQREKVLFPFGYGLSYTSFTLHDISLATLKDHHENHIEVRVSVSNVGKRRGTETIQVYVGRADHSEQHPWKTLVAFAQVSLDAGETREMSLELSRRDLAFYDESTEHWVVEASDYLVHVGTSVFEIASTERLHIPERIDYAL	<0.5%	<0.5%	13.1%
810 (protein, listed as Cutibacterium avidum) MTPAEITDLISQLTLEEKASLCSGGDSWHLQTVEKLGIPGPMVTDGPHGLRKVADGSMAGIYDSVPATCFPTAAGLASTWDPELVHDIGVALGEETRAESVSVLLGPGINMKRSPLCGRNFEYFSEDPVLAGTLATELVRGIQSQGVGTSLKHFAANNQETDRLRVNAEIDERTLREIYLPAFEMVVKQADPWTVMCSYNAINGVYSSQNRWLLTELLHEEWGYKGLVISDWGAVVNRVEGLRAGLDLEMPGDAPRNDARIVEAVRSGDLDEEILDTAVARILSLIARASAAMADPGSYDIEAHHQLARRAAAASVVLLKNDGDVLPLIDPDDVVVIGEFARTPRYQGAGSSKVNPTRVDTALDSLRQTWDDVPFAPGFTLTDHPDPQLADEAVSLSRGKTAVLFLGLPAVAESEGYDRTNTDLPTDQIDLLARVRKVASHTIVVLSNGSSVGTAEWDDQADAIVECWLGGQASGSGVIDVLTGKVNPSGHLAETITRKLSDIPAQLNFPGEFQHVTYGEGRYIGYRGLDATEREVAYPFGHGLSYTTFAYCDLDLLVRPVSDETAQDETVLTVSFTVSNTGDRAGATVPQVYLGFPDATVDRCVRELKAFLRVELDPGESRSITIDLTRRDLSYWDILLHSWTVEPGTVRVEVGISSRDLPLTGEVILDAPTVRHPLRRDSTVAEWMDADEEFAAKVRRATEQTGIDLDSDPTTAAFILAMPAYKMLQMAPIMTPEELDKMLGD	<0.5%	<0.5%	22.7%
841 (protein, listed as Mycetocola reblochoni) MTTPRPSLEQKAALTSGRDTWHSESLDDIPVMMMTDGPHGLRQQLQDGGDALGIGNSVPATCFPPAAGLASSWNTGLVERVGVALGTEARATEIRILLGPGLNIKRSPLGGRNFEYFSEDPRVSGELAAAMVTGIQSMGVAATPKHFAVNNQETDRLRVSAEVDERALREIYLSAFERVVTVASPWAFMSSYNRINGVYASENHWLLTELLREEWGFDGLVMSDWGAVNDRVAALAAGLELEMPPTGTDQLIVDAVRTGELDEAVLDRAVDRLRLLAERTERPPLTGYDADAHDDLARSAAQESIVLLKNADVLPLDAAATPRIAVVGEFARTPRYQGGGSSRVVPTRMHSALDALTDALGLGADGLSFSPGFALDGDTPAGAADEAVAAVEAADVAVLFLGLPDGTESEGFDRTTIALPAEQLHLLERAAATTTPVVVVLSNGAVVDVASWEHHADAILEAWLLGQAGGLAIADVLLGTVSPSGKLAETIPLDLADTPSHLSFPGRDGVVVYGESVYVGYRHYDTRRLPVAYPFGFGLSYTRFEYSELEVTATGRNSWTVAATVTNVGERRGAETVQLYIGVEQDRPDRPVHELRGFAKVDLEPGESARVELPVTERDLSHWSVRDGAWRVEKGRYTVELAAHSRDVRLATTITSEGDGVVTRLNGMSTVGEWLDHPYGREQIQWFIDGVDTRFGATAPEMIVMLKQLPIAKLTTFGIGLDSARIERMCAEAAADGERHGEQP	<0.5%	<0.5%	12.3%
890 (protein, listed as Arthrobacter ulcerisalmonis) MNLPLSPAVTAPAAGSPDAEALIHNLADSLSLAEQVQLLTGADVWSTHTLPSIGLSRIVLSDGPAGVRGEDFDERHDSVSLPSSSALSASWSAELAHRYGQVLGQEARRKGVHAVLGPTINLHRSPLGGRHFECMSEDPRLTATMAAGYVAGVQSMGVGATPKHYLANESETDRFTVDSVVAERPLRELYLAAFEDAITESRAWLVMSSYNSINGTTASENDLLETPLSTEWGFDGVVVSDWTGVRSVEAANAHQDLEMPGPVGHWSAKLLAAVESGQVSREAIVEKVVRILRLAARVGSLDGVSPAVAELPAALDSAAVAREVAIRGAVLIRNSAGLLPLDASALTSVALSGHNADEARTQGGGSATVMPKQNISPLMGLREALPATTSLSYTRGAKVAEGLQQFARTALHNPVSNVPGARVTFLDASGTEIFAEDRLASSLIWFGVGIPEGTAAITISTDWTAEQAGVHHLGLGTVGQARLSFNGTEVFNGELLDTTNVLGAALFDPPSTVHQIETTAGETVRIEAHYTLPPEQFIPLTAILLGEEAVVTDPQAEIDDAVAAASSADVAIVVVGTNSSIESEGFDRSNLDLPGHQNELVRAVAAANPRTIVVVNSGSPVLMPWLEDVGAVLLGWFGGQEFGRAIADILLGVAEPGGRLPTSWPAALADVPVLSTTPVEGKLEYAEGIHVGYRAWLQQQAAGGPAPAVPFGFGLGYTSFEFSAPHAPQQVQAGNDVIVHVPVRNTGSRAGREVVQVYLERPDSTVERPVRWLAGFAGTHLAPAGTESVEVRIPARAFEHYDGGWQVERGAFRILVGKHVEDDFQVLAIDVR	<0.5%	<0.5%	12.6%
894 (protein, listed as Microbacterium sp.) MSDSVAQPSVTDLTLEEKASLTSGADFWTTTAIDRAGVPSIMMTDGPHGLRKQADGNDHVGLANSVPATCFPPAVGLSATFDPELAVRVGEALGVESAIENVAVILGPGINIKRSPLCGRNFEYMSEDPIVSGVMGGALVRGIQSRGVGASLKHFAANNQETDRLRVSSDVDPRPLREIYLRGFQIAIEGAQPWTVMCSYNRINGAYASEDPWLLTSVLRDEWGFEGLVVSDWGAVNDRVAGVIAGLDLEMPSSGGATDAQLVAAVRDGSLDEAALDVVARRVLDLVQKAGRRPAIDGHLDIDAHHALAREVAGRAIVLLKNDDRVLPLAAEQKVAVIGAFAETPRFQGAGSSLINPTRLDSALDGFAEYAAEGAVTYAAGFALDGSGDADVLRAEAVAAASASEVAVVFLGIPASAESEGFDREHIDLPADQLALLDAVLVANPRTVVVLSNGGVVALPFADRVPAIIEGWLLGQAGGSATADVLYGAVNPSGRLAETIPVRLEDNPSYGNFPGEHGHVRYGEGLFVGYRWYDERGLDVTFPFGHGLSYTTFAYGDAQASVRSDGDMAVRIAVTNTGERAGRELVQVYTALQGSAVQRAPRELKAFQSVALEAGETREVELIVRRDDLAYWDVRVDRWVVEGGEYEVHVGASSRDIRSVASAEVAGDELVLPASLNSSITELLAHPVLGERMRALVAAAFGPGAESEGALQVLGSFPIGRLAAFPNVPATRDEIERMIAQA	<0.5%	<0.5%	21.3%
849 (protein, listed as Bifidobacterium merycicum) MSDNTYPSVNDLTLEEEASLTSGGDAWHLQGVEAKGIPGYMITDGPHGLRKSLASNTGETDLNDSVPATCFPPAAGLSSSWNPELIRQVGEAMGEECIQEKVAVILGPGVNIKRNPLGGRCFEYWSEDPYLAGHEAVGIVAGVQSKGVGTSLKHFAANNQETDRLRVSANISQRALREIYFPAFEHIVKTAQPWTIMCSYNRINGVHSAQNRWLLTDVLRDEWGFEGIVMSDWGADHDRVASLNAGLNLEMPPTYTDDQIVYAARDGRIQPEQLDRMAQGMIDLVNKTRAAMSVEDYRFDVDAHNEIARRAAVESMVLLKNDDAILPVSRDAKIAVIGEFARTPRYQGGGSSHITPTKMTGFLDALAERGVPVDFAPGFTLDLEPTDPALEAEAVIAARDADVVLMFLGLPEAAESEGFDRDTLDIPAKQIELLKAVAAENKNVVVILSNGSVVSVAPWANNAKGILESWLLGQAGGAALADVIFGDVSPSGKLAQSVPMDINDDPSMINWPGEEGHVDYGEGVFVGYRYYDTYGKAVDYPFGYGLSYATFEIGGVKAVKTGANTARVSATVTNTSDVDAAETVQVYVAPGKADVARPKHELKAFRKVFLKAHESAEVSFDLDESAFAYWSEKFNDWHVEAGEYGIEVGMSSRDIAGVATVALDGDGKALPLTEWSTFGEWSADPVGSKVVADVREAGERGELPKLPDNDMMRMFLGSMPINSMSTLMGESGKAISSFMLDGYAKLVG	<0.5%	<0.5%	17.8%
